Data from paper PMC10315710, “Diacylglycerol kinase ζ interacts with sphingomyelin synthase 1 and sphingomyelin synthase‐related protein via different regions” (FEBS Open Bio, 2023).
Blank lines part the entries; values can stand above or below the binder they belong to.

Molecular target: T1, Twin‐Strep (TS)‐tagged DGKζ (TS‐DGKζ) (human, UniProt Q13574 1-928)
T1 construct: full-length (FL) DGKζ (DGKζ1, 104 kDa), human; no cleavage is reported and the protein is detected by anti-TS; also called purified DGKζ; source: HEK293 cells, purified (Strep-Tactin XT beads, without detergents); not shown: Twin-Strep, N-terminal, kept
T1 sequence (Q13574 whole entry): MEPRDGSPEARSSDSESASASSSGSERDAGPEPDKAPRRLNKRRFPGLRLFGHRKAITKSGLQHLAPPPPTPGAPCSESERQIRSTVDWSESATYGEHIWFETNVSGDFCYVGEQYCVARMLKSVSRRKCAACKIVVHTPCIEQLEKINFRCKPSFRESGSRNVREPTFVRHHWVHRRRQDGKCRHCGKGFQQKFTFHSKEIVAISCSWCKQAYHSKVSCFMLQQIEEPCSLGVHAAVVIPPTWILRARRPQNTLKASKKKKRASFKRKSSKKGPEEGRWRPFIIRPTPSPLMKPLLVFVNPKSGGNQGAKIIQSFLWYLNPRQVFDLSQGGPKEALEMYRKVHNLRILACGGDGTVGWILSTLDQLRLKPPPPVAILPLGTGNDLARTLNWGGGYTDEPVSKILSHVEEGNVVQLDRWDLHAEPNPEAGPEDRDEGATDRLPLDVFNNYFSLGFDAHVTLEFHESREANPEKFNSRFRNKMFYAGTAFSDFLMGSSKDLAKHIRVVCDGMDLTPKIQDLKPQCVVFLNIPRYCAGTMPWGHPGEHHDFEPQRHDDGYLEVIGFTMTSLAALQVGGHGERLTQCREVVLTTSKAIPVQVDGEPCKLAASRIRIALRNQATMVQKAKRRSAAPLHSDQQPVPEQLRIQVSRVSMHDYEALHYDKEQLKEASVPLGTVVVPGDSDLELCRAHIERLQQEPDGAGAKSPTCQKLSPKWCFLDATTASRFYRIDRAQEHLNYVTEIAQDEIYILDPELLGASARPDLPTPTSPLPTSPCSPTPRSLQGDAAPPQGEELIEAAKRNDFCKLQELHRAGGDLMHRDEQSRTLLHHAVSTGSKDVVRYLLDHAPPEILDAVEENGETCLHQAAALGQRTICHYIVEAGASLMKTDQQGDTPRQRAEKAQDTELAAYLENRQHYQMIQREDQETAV
Experiment: pull-down; purified GST-SMS1-CT or GST-SMSr-NT on glutathione-Sepharose beads, purified Twin-Strep-tagged DGKζ added for 2 h at 4 °C; 20 mM Tris-HCl pH 7.5, 150 mM NaCl, 1 mM EDTA, 0.1% Triton X-100; western blot with anti-GST and anti-TS
Settings: both partners purified

binding result: binds
B1: GST‐SMS1‐CT (domain or fragment, human, UniProt Q86VZ5 348-413, looked up)
chain: HTMANQQVLKEASQMNLLARVWWYRPFQYFEKNVQGIVPRSYHWPFPWPVVHLSRQVKYSRLVNDT
notes: SMS1, C-terminal cytosolic region; SMS1-CT is defined as aa 348–413; also called GST-fused SMS1‐CT; GST-tagged SMS1‐CT; source: bacterially expressed, purified (glutathione-Sepharose beads); not shown: GST, N-terminal, kept

binding result: binds
B2: GST‐SMSr‐NT (domain or fragment, human, UniProt Q96LT4 1-151, looked up)
chain: MAGPNQLCIRRWTTKHVAVWLKDEGFFEYVDILCNKHRLDGITLLTLTEYDLRSPPLEIKVLGDIKRLMLSVRKLQKIHIDVLEEMGYNSDSPMGSMTPFISALQSTDWLCNGELSHDCDGPITDLNSDQYQYMNGKNKHSVRRLDPEYWK
notes: SMSr, N-terminal cytosolic region (contains SAMD); SMSr-NT is defined as aa 1–151; also called GST-fused SMSr‐NT; GST-tagged SMSr‐NT; source: bacterially expressed, purified (glutathione-Sepharose beads); not shown: GST, N-terminal, kept
